# Assay results reported in the supplement of paper PMC10567573.
# B1: BEX2 addR (peptide)
# chain: HSLRAVSTDPPHHDHHDEFCLMPR
# B2: POLD2 addR (peptide)
# chain: CQPISFSGFGAEDDDLGGLGLGPR
# B3: TRPA1 addR (peptide)
# chain: EQRNSRWNTVLRAVKAKTHHLEPR
# B4: SNF8 addR (peptide)
# chain: LPALFTDLYSQEITAEEAREALPR
# Test: protein stability index of a GFP-peptide fusion (GPS, HEK-293T) (PSI 1-6); higher = more stable
# Conditions: c terminus: native
# 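Further: lentivirally expressed fusion library, cells FACS-sorted into six equal-sized GFP/DsRed ratio bins, PSI computed from sequencing read fractions per bin weighted by bin number.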
protein,measurement,setting,value
B1,protein stability index,parent: NP_116010.1,4.61
B2,protein stability index,parent: NP_006221.1,4.36
B3,protein stability index,parent: NP_015628.1,4.5
B4,protein stability index,parent: NP_009172.2,3.55
